This is an account of results in the RNAGym collection of RNA variant scans (doi:10.1073/pnas.2313332121).

B1: TPR 5TU (parent)
chain: GGAUCUUCUCGAUCUAACAAAAAAGACAAAUCUGCCACAAAGCUUGAGAGCAUCUUCGGAUGCAGAGGCGGCAGCCUUCGGUGGCGCGAUAGCGCCAACGUUCUCAACUAUGACACGCAAAACGCGUGCUCCGUUGAAUGGAGUUUAUCAUG

Fewer inactive variants are shown than the library holds.

The data set covers variants of B1. Put plainly: polymerase ribozyme fitness, log enrichment relative to wild type (log ratio); higher = more active; in vitro selection for triplet polymerase activity. The gist of the method: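 Mutant libraries were PCR-built and transcribed for each subunit of a heterodimeric triplet polymerase ribozyme and selected for one round in triplicate at −7 °C, frozen, before gel excision of extended constructs and streptavidin-bead capture. Input and output libraries were Illumina-sequenced, keeping genotypes with ≥10 input reads and ≥1 read per output. Fitness is a logarithmic ratio of genotype to wild-type enrichment, in base 2, using inverse-variance-weighted replicate averages.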
Consider U55A G58C G68U G81A A91U C96A, for which the “polymerase ribozyme fitness (log ratio)” value was at most -4.2.
For C54U U55G U56A C69U A73C A115U, the “polymerase ribozyme fitness (log ratio)” value is at most -4.2.
In the case of C54G C69A A73G G86U C105A C118A C125A U148A, the “polymerase ribozyme fitness (log ratio)” value is at most -4.2.
With U53A U55G A64U C75U A91C C116U U144A, the “polymerase ribozyme fitness (log ratio)” value was at most -4.2.
Consider C54U U55A C87A, for which the “polymerase ribozyme fitness (log ratio)” value was at most -4.2.
For the variant U53A U61A, the “polymerase ribozyme fitness (log ratio)” value is -1.15.
Take U53A U61G: the “polymerase ribozyme fitness (log ratio)” value is -0.814.
Regarding U53G U56A A89G G94A A121G G141U G143A, the “polymerase ribozyme fitness (log ratio)” value was at most -4.2.
Then C54U C85U U104G A119G G136A U146G A147G, with -3.62; and U53A U61G C99U G136A, with -3.67; and U55A C76G C93U C103G G143A A150U, with at most -4.2.
U55C A91U U144A: the “polymerase ribozyme fitness (log ratio)” value is at most -4.2.
Take C54A G83C C85A: the “polymerase ribozyme fitness (log ratio)” value is at most -4.2.
Consider U55C G124C, for which the “polymerase ribozyme fitness (log ratio)” value is -1.14.
For the variant U53A U55G C85A C95U A121C, the “polymerase ribozyme fitness (log ratio)” value was at most -4.2.
On to C54U C76G A89C A91G G94U U146G, for which the “polymerase ribozyme fitness (log ratio)” value is at most -4.2.
Turning to C54A A91U C108U G124U A138C G141A, the “polymerase ribozyme fitness (log ratio)” value is at most -4.2.
Turning to U53G G136C, the “polymerase ribozyme fitness (log ratio)” value was -4.09.
With U53A G70C C149G, the “polymerase ribozyme fitness (log ratio)” value is at most -4.2.
As for C54A C116U, the “polymerase ribozyme fitness (log ratio)” value is -0.368.
On to U55A A119G, for which the “polymerase ribozyme fitness (log ratio)” value was -1.38.
For the variant C54A U82A U134A U146C, the “polymerase ribozyme fitness (log ratio)” value is -3.03.
Regarding C54G G81A C95U, the “polymerase ribozyme fitness (log ratio)” value is -2.33.
Then U55A C87U A137C, with -3.92.
As for U53C C95U C125U A147U U148A U151G, the “polymerase ribozyme fitness (log ratio)” value is at most -4.2.
On to U55A C63A C96G, for which the “polymerase ribozyme fitness (log ratio)” value is -2.
For C54G G58A A89U A98G G133C, the “polymerase ribozyme fitness (log ratio)” value is -2.63.
As for U55A C76G G92A A122G, the “polymerase ribozyme fitness (log ratio)” value is at most -4.2.
As for C54A A60G G81A A91U A106U A110G G141C, the “polymerase ribozyme fitness (log ratio)” value was at most -4.2.
As for U55C, the “polymerase ribozyme fitness (log ratio)” value came to 0.0178.
As to U55G, the “polymerase ribozyme fitness (log ratio)” value is -0.284.
On to U55A, for which the “polymerase ribozyme fitness (log ratio)” value is -0.301.
Turning to C54U C99A U146G A150U, the “polymerase ribozyme fitness (log ratio)” value was -3.6.
C54U G86U A150U: the “polymerase ribozyme fitness (log ratio)” value is -0.319.
For the variant C54A G70U A91U C114U A119U A120U, the “polymerase ribozyme fitness (log ratio)” value was at most -4.2.
Take C54A U56A C118U: the “polymerase ribozyme fitness (log ratio)” value is -2.14.
Take U53C U77G G124C U135C: the “polymerase ribozyme fitness (log ratio)” value was at most -4.2.
As to U55G A98G U139G, the “polymerase ribozyme fitness (log ratio)” value was -0.271.
For U55A A60G U102A U148A, the “polymerase ribozyme fitness (log ratio)” value is -3.91.
The result for U53A G59A reads -0.147.
Regarding U53A G59U, the “polymerase ribozyme fitness (log ratio)” value stood at 0.71.
Consider U53A G94U, for which the “polymerase ribozyme fitness (log ratio)” value is -3.17.
Then C54U G59A C76A C85U, with 0.107; and U55A C85U C114G G128A, with at most -4.2.
With C54U C72U U135C, the “polymerase ribozyme fitness (log ratio)” value was -3.15.
In the case of C54U G141A, the “polymerase ribozyme fitness (log ratio)” value was -0.888.
As for U53C C87G U101A, the “polymerase ribozyme fitness (log ratio)” value was at most -4.2.
For the variant C54A U61A A73G U77G G100A, the “polymerase ribozyme fitness (log ratio)” value was at most -4.2.
Consider U53G G94A, for which the “polymerase ribozyme fitness (log ratio)” value was -4.1.
For C54U U56A G70A C85A G86U C95G, the “polymerase ribozyme fitness (log ratio)” value is at most -4.2.
Consider U53A U78C U134G, for which the “polymerase ribozyme fitness (log ratio)” value was -2.35.
Then C54A C132U, with -2.3; and U53A G86C A91U G136A, with at most -4.2.
The result for U53A C95A reads -0.902; that for U55A G62C G68U C96U A121U, at most -4.2; that for U55A U61G, -3.71.
C54G G86A C129G: the “polymerase ribozyme fitness (log ratio)” value is -3.8.
Turning to C54U C85U C116A, the “polymerase ribozyme fitness (log ratio)” value is 0.743.
Turning to U55A C63G, the “polymerase ribozyme fitness (log ratio)” value was 0.923.
Then U55A C57A G59C G80U A91U, with at most -4.2.
Regarding U53A C54A G59U A64U C93G A137C, the “polymerase ribozyme fitness (log ratio)” value was at most -4.2.
With C54U U55A A98U U144A, the “polymerase ribozyme fitness (log ratio)” value was -1.24.
As to U53A G84A C87U A106G, the “polymerase ribozyme fitness (log ratio)” value was -3.23.
Then U55A G83U C85A U101C C116A, with at most -4.2.
Turning to C54U C85U, the “polymerase ribozyme fitness (log ratio)” value was -0.491.
Then U55A A73G U135A U146C, with -0.581; and C54A G83C, with -3.55.
For the variant U55A A91U C108A U130C G133U, the “polymerase ribozyme fitness (log ratio)” value was at most -4.2.
Consider U53A C85A G124A, for which the “polymerase ribozyme fitness (log ratio)” value was -2.89.
Take U53A C149G: the “polymerase ribozyme fitness (log ratio)” value is -3.71.
Consider U53A G70C, for which the “polymerase ribozyme fitness (log ratio)” value is at most -4.2.
Then U53A G70A, with -3.81; and U53A U56A C105U, with -1.66; and U53A U151G, with at most -4.2.
As to C54A G124A C125U A147C, the “polymerase ribozyme fitness (log ratio)” value is -2.1.
With C54A C57G A60U C87U C95U G136A, the “polymerase ribozyme fitness (log ratio)” value is -4.11.
In the case of C54U U55A C93U, the “polymerase ribozyme fitness (log ratio)” value is -0.48.
With U53A G86U A142U, the “polymerase ribozyme fitness (log ratio)” value is at most -4.2.
The result for C54G U55A G84A reads -1.93; that for C54U C93A, -2.6; that for C54A G71A G88C A110G, at most -4.2.
As for U55A U90A G100C C118U, the “polymerase ribozyme fitness (log ratio)” value is at most -4.2.
The result for C54U U56A C93U C131G G133A U146A G152U reads -4; that for U55A G58U C79U G88A A106G, at most -4.2.
